In paper PMC5977221:
Values joined by “and” are separate entries in the source; they are usually repeats but may differ in a detail not shown here. Equal entries are not always repeated.

Experiments:
[1] = system: BAA2326 repressor (Shiga toxin-encoding bacteriophage BAA2326 (from STEC)); test: EMSA; settings: for binding signal: scale: fold Kd relative to separate OR1
[2] = system: BAA2326 repressor (Shiga toxin-encoding bacteriophage BAA2326 (from STEC)); test: DNaseI footprinting

Substance	binding signal [1]	other results
GCGAATTCACTAAAGCACTTGCAATATCACCTTTGGTTATATGTAATGCCATAATAACTAAGAAGCTTCC (double strand) [BAA2326 OR3 oligonucleotide]	2.5	
GCGAATTCACTAAAGCACTTGCAATATGTAATGAAATATCTGCGGTGTTGACATTCCATAATAACTAAGAAGCTTCC (double strand) [BAA2326 OR2 oligonucleotide]	83.3	
GCGAATTCACTAAAGCACTTGCATTTAATAACTGTGCGTAATGATATGCCATAATAACTAAGAAGCTTCC (double strand) [BAA2326 OR1 oligonucleotide]		Kd [1]: 0.42 nM
intact BAA2326 OR, wild type		Kd [2]: 28.6 nM and 44 nM and 59.1 nM
